Laboratory results taken from PMC7817217 (2020).

Molecular target: SARS-CoV-2 spike protein receptor binding domain (RBD) (SARS-CoV-2, UniProt P0DTC2 319-541)
Assay: SPR

B1: bACE2-Rm residues 19 to 615 fused to the mouse Fc tag (bACE2-Rm-mFc) (Fc fusion)
chain: STTEDEAKKFLDKFNSKAEDLSYESSLASWDYNTNISDENVQKMDEAGAKWSAFYEEQSKLAKNYPLEEIQNDTVKRQLQILQQSGSPVLSEDKSKRLNSILNAMSTIYSTGKVCKPNNPQECLLLEPGLDNIMGTSKDYNERLWAWEGWRAEVGKQLRPLYEEYVVLKNEMARGYHYEDYGDYWRRDYETEESSGPGYSRDQLMKDVDRIFTEIKPLYEHLHAYVRAKLMDTYPLHISPTGCLPAHLLGDMWGRFWTNLYPLTVPFGQKPNIDVTDAMLNQGWDANRIFKEAEKFFVSVSLPKMTEGFWNKSMLTEPGDGRKVVCHPTAWDLGKGDFRIKMCTKVTMEDFLTAHHEMGHIQYDMAYASQPYLLRNGANEGFHEAVGEVMSLSVATPKHLKTMGLLSPDFREDDETEINFLLKQALNIVGTLPFTYMLEKWRWMVFKGEIPKEEWMKKWWEMKREIVGVVEPVPHDETYCDPASLFHVANDYSFIRYYTRTIFEFQFHEALCRIAQHNGPLHKCDISNSTDAGKKLHQMLSVGKSQAWTKTLEDIVDSRNMDVGPLLRYFKPLYTWLQEQNRKSYVGWNTDWSPYAD
Q: How did the Kd turn out when B1 was run?
A: 500 nM
